Experimental findings from US20050130152, “Method for performing in vitro diagnosis using gene regulation mechanisms and corresponding diagnosis kit” (UNISENSOR S.A., published 2005) are described below.

For this data set, the target named is T1, TetR class C (tetracycline repressor, pSC101) (Escherichia coli C600 (plasmid pSC101), UniProt P03039 P03039:1-219).
T1 sequence: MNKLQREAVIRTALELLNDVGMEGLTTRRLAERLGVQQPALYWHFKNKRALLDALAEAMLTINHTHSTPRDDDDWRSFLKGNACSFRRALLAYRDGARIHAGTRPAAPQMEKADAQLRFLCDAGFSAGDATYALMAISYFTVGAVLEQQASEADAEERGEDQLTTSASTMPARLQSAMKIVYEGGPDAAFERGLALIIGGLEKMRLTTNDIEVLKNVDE
Briefly: immunochromatographic strip; test line 5218 without tetracycline, falling to 399 at 100 ppb tetracycline in milk; DNA immobilised via avidin. As to conditions: tags: untagged; detected via anti-TetR serum and gold-labelled A-protein in strip assay; chain copies: 2; label: 5'-biotin on teta-40; 31 bp duplex with 5' single-strand poly-T tail. On the procedure: 200 μl of milk are incubated in the presence of the lyophilised reagents and prepared as in Point 1.1.2.2. After two minutes of incubation at 37° C., the analysis strip described at 1.3 is immersed in the solution. The final interpretation is carried out after 8 minutes of incubation by means of an optical strip reader available from 77-Elektronika (Budapest, Hungary).

B1: tetA operator of pSC101 (teta-40/teta-30) (dsDNA)
DNA 1: TTTTTTTTTTTAATGCGGTAGTTTATCACAGTTAATTGCTAA
DNA 2: TTAGCAATTAACTGTGATAAACTACCGCATT
For the molecule B1, the binding result is reported as “binds”.
